Assay results: the supplement of paper PMC9170038

Test system: MS2 coat protein
Experiment: apparent KD of MS2 coat protein; designed switch direction (-1 OFF switch, 1 ON switch): -1; higher = weaker reporter binding
Summary of the method: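 Each step of the titration lasted 0.8–1.5 h at the lowest concentration and 10–20 min at the highest. The protein, SNAP-549-labelled MS2 coat protein, went from 0.7 or 1.5 nM doubling to 3 µM over RNA switches transcribed on Illumina chips by stalled E. coli RNA polymerase. Normalised cluster fluorescence was curve-fitted, and the per-design median over clusters is given as apparent KD.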

[1] = input ligand: microRNA oligo, concentration not stated
[2] = Eterna round: R95, input ligand: FMN 200 uM
[3] = Eterna round: R95, input ligand: microRNA oligo, concentration not stated
[4] = Eterna round: R95, input ligand: none

| Sequence | apparent KD of MS2 coat protein (input ligand: FMN 200 uM) [nM] | apparent KD of MS2 coat protein [1] [nM] | apparent KD of MS2 coat protein (input ligand: none) [nM] | apparent KD of MS2 coat protein [2] [nM] | apparent KD of MS2 coat protein [3] [nM] | apparent KD of MS2 coat protein [4] [nM] |
| --- | --- | --- | --- | --- | --- | --- |
| AGCUAGUGCCGAGGAUAUACAUGAGGAUCACCCAUGUAGGCGUGAGGCUUUGUCUCACGCGAGAUGUAGAAGGCGGCGUUGGCA [JL ENG2 1.52] (Eterna round: R96, puzzle: Exclusion NG 2) | 60.5 | 14.1 | 21.7 |  |  |  |
| AGCUGACGAGGAUAUACAUGAGGAUCACCCAUGUAAGAUCAGCGACGAUAGUCGCAAUGUAGAAGGCGUCAGCU [E3/10-A2] (Eterna round: R97, puzzle: Exclusion 3) | 299 |  | 30.1 |  |  |  |
| AGCUGUGGCCAAGGAUAUCUAGCCUUAAAUACCGACGUAUAGUCGGACAUGAGGAUCACCCAUGUGGAGAAGGUGGUCUCAGCA [Eli eng2 - 044] (Eterna round: R96, puzzle: Exclusion NG 2) | 82 | 53 | 74.3 |  |  |  |
| AGCUGUGGCCGAGGAUAUACACAUGAGGAUCACCCAUGUAGGCGCGGAUACGCGCUAAAAUAAGUGUAGAAGGCGGUCUCAGCA [Eli eng2 - 056] (Eterna round: R96, puzzle: Exclusion NG 2) | 20.1 | 17.4 | 18.1 |  |  |  |
| AGCUGUGGCCGAGGAUAUCACGAACCAUGGAAAACCAUGGAACUCCUACAUGAGGAUCACCCAUGUGAGAAGGCGGUCUCAGCA [Eli eng2 - 020] (Eterna round: R96, puzzle: Exclusion NG 2) | 109 | 33.4 | 52.1 |  |  |  |
| AGCUGUGGCCGAGGAUAUCUAACUUCAAAUACCGACGUAUAGUCGGACAUGAGGAUCACCCAUGUAGAGAAGGCGGUCUCAGCA [Eli eng2 - 037] (Eterna round: R96, puzzle: Exclusion NG 2) |  | 12.3 |  |  |  |  |
| AGCUGUGGCCGAGGAUAUCUGAACCUUCAAACCGAAAUAUAAUCGGACAUGAGGAUCACCCAUGUAGAGAAGGCGGUCUCAGCA [Eli eng2 - 060] (Eterna round: R96, puzzle: Exclusion NG 2) |  | 9.95 |  |  |  |  |
| AGCUGUGGCCGAGGAUAUCUGAACUCAAUAACCGAAAUAUAAUCGGACAUGAGGAUCACCCAUGUAGAGAAGGCGGUCUCAGCA [Eli eng2 - 080] (Eterna round: R96, puzzle: Exclusion NG 2) |  | 24.2 |  |  |  |  |
| AGGAAUGAAGGAUAUACAUGAGGAUCACCCAUGUAAAAAAAGUCGUUUAUUGUGUCAUGUAGAAGGUCAAGAAG [JR_Exclusion3_Sub002] (puzzle: Exclusion 3) |  |  |  | 29.6 | 29.6 | 33 |
| AGGUAACAUGAGGAUCACCCAUGUCAGGAUAUCAUAAAGAUUAGAUUAGAGAAGAGGUUGAGAAGGGACUAUAU [Excluse me! 17- Jieux - Exclusion 1] (puzzle: Exclusion 1) |  |  |  |  | 41.9 |  |
| AGGUCUCGUGUCAGGAUAUAUUUUCUCUGAGCAAGGUAGAAGGGACAUGAGGAUCACCCAUGUCUGAGGAAAAU [Eternabot (L1) Solution 34] (Eterna round: R97, puzzle: Brourd's mod of Exclusion 4) | 24 |  | 19.1 |  |  |  |
| AGGUGGAAGCAGGAUAUGCUAGAAGUGUAGAAUGCAGAAGGGCUAACAUGAGGAUCACCCAUGUAAGAGGUGUA [JR_E6_Sub051] (puzzle: Exclusion 6) |  |  |  | 383 | 200 | 236 |
| AGGUGUAGAGGAUAUACUGCAAAGCACAUGAGGAUCACCCAUGUCCCUCUAUGGGAUUAUGUAGAAGGCUACACCA [Omei Ex5 C6] (Eterna round: R97, puzzle: Exclusion 5) | 17.5 |  | 20.2 |  |  |  |
| AGGUGUAGAGGAUAUUUAUUCUUCCACAUGAGGAUCACCCAUGUCCUGGUCACCAAGGACGGAGAAGGCUACACCA [Omei Ex5 D24] (Eterna round: R97, puzzle: Exclusion 5) | 57.4 |  | 63.5 |  |  |  |
| AGUAACAGAGGAUAUACUGUUUUAUGUAUUUAUUAUUUUAAACAUGAGGAUCACCCAUGUAGAAGGCUGAAUGA [JMF 98] (puzzle: Exclusion 2) |  |  |  |  | 22.4 |  |
| AGUAACAGAGGAUAUACUGUUUUAUGUGUUUAUUAUUUUAAACAUGAGGAUCACCCAUGUAGAAGGCUGAAUAA [JMF 82] (puzzle: Exclusion 2) |  |  |  |  | 40.3 |  |
| AGUAACUAUCACGAAAGUGAUAGUUACAACAGGUGAUAAACAUGAGGAUCACCCAUGUCCUCAUUUGCUCGUCUUAU [Sensor 3 - 11] (puzzle: Sensor v3, turn-off variant 2) |  |  |  | 984 | 422 | 527 |
| AGUAACUAUCACGAAAGUGAUAGUUACAAUAGCAAGUGAACAUGAGGAUCACCCAUGUCCUCAUUUGCUCGUCUUAU [Sensor 3 - 20] (puzzle: Sensor v3, turn-off variant 2) |  |  |  | 16.1 | 632 | 13.6 |
